In patent US20220185907A1:

Experiments:
[1] = molecular target: CD38 on cells (Raji, Daudi, REH, CD38-transfected HEK293) (human) (UniProt P28907); experiment: flow cytometry on Raji cells; top asymptote fixed at about the maximum response of Darzalex
[2] = molecular target: CD38 on cells (Raji, Daudi, REH, CD38-transfected HEK293) (human) (UniProt P28907); experiment: flow cytometry on Raji cells (express CD19 and CD38), 11 concentrations from 30 ug/mL
[3] = molecular target: CD38 on cells (Raji, Daudi, REH, CD38-transfected HEK293) (human) (UniProt P28907); experiment: flow cytometry on Raji cells (express CD19 and CD38)

- Adjusted EC50 [1]: 1.27 nM
- EC50 [2]: 0.195 µg/mL
- Max MFI [2]: 4.02e+06 MFI
- EC50 [3]: 1.27 nM
Substance: Darzalex® (CD38 control) (antibody)
